In experiment [1] the target is T1, Cut14^Smc2 (fission yeast condensin SMC subunit) (S. pombe, UniProt P41003 1-1172).
T1 construct: Cut14 (Smc2), S. pombe condensin SMC subunit; cDNA cloned into an S. cerevisiae expression vector; The Pk tag is used for the condensin immunoprecipitation in the DNA assays; also called Cut14-3xPk; source: S. cerevisiae (w303, pep4 deleted), co-overexpressed with the other four condensin subunits from GAL1-10 promoters; in cell extract, and purified as the complex (IgG-agarose, 3C protease …)
T1 sequence (looked up): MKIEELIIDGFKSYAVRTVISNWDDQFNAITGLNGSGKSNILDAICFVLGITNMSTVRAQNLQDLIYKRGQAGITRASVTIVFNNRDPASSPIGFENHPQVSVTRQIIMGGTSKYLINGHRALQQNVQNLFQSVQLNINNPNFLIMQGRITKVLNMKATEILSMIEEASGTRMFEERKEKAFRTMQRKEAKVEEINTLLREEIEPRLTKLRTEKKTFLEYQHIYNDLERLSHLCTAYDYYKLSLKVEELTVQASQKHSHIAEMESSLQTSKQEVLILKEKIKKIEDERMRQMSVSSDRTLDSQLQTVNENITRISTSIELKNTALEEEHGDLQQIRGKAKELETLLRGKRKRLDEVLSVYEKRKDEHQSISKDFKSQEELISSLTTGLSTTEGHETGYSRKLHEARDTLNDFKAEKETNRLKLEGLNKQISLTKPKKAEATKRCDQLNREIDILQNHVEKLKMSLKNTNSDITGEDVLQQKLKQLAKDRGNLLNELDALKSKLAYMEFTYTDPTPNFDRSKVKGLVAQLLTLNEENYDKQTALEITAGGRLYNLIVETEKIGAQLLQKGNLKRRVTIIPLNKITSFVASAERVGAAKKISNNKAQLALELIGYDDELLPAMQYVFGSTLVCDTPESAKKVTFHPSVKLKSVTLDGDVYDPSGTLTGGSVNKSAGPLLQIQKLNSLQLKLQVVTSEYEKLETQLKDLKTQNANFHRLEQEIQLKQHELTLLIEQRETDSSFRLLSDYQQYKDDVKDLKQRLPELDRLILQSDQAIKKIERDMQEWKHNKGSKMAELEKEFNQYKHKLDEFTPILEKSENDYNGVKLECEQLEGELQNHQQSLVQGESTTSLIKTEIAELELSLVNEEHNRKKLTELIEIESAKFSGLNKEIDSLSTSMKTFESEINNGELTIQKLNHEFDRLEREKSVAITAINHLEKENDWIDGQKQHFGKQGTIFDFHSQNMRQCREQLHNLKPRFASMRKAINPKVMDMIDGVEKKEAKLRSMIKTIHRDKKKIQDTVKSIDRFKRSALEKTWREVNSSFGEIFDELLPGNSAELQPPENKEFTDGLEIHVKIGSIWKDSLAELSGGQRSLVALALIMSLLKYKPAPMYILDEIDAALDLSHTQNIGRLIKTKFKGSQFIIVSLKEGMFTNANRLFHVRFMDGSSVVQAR
As to the kind of experiment: cross-linking; sulfo-SDA cross-link mass spectrometry (CLMS) of the purified five-subunit condensin complex with equimolar 124 bp linear dsDNA, no nucleotide (initial state); CL buffer, 30°C 30 min, UV 365 nm on ice; 1% FDR at residue-pair level. The note with it: both partners purified.

For experiment [2], the target named is T2, Cnd1^Ycs4 (fission yeast condensin HEAT-repeat subunit) (S. pombe, UniProt O94679 1-1158).
T2 construct: Cnd1 (Ycs4), S. pombe condensin HEAT-repeat subunit; cDNA cloned into an S. cerevisiae expression vector; source: S. cerevisiae (w303, pep4 deleted), co-overexpressed with the other four condensin subunits from GAL1-10 promoters; in cell extract, and purified as the complex (IgG-agarose, 3C protease elution, heparin, Superose 6)
T2 sequence (looked up): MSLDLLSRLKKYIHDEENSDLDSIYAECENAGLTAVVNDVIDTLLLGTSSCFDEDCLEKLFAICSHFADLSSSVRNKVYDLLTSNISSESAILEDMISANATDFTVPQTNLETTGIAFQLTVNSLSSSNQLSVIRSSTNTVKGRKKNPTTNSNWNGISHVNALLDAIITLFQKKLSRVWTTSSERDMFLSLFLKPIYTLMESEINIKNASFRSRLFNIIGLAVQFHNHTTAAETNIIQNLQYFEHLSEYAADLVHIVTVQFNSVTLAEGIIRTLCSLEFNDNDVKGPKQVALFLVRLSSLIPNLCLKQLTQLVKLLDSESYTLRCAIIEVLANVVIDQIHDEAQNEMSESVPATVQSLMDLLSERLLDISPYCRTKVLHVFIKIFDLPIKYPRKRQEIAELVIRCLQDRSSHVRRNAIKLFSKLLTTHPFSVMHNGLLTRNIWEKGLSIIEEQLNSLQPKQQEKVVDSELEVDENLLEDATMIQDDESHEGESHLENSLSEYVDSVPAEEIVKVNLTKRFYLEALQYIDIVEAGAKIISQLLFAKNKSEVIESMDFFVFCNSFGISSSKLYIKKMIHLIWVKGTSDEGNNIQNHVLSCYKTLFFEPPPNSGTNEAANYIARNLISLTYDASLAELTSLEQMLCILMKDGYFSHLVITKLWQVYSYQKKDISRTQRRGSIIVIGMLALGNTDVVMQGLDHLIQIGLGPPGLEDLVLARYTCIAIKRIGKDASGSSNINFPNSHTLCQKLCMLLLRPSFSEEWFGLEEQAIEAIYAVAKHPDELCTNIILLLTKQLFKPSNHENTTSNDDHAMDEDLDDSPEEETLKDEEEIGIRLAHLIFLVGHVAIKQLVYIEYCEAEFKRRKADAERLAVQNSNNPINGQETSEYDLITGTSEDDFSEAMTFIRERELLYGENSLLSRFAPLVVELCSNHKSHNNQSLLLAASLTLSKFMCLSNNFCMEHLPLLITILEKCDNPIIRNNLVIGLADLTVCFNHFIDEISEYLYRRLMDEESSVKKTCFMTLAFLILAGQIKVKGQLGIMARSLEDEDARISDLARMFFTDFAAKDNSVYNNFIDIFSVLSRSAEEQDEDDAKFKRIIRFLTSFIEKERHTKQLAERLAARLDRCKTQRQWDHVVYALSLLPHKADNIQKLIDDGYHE
As to the kind of experiment: cross-linking; sulfo-SDA cross-link mass spectrometry (CLMS) of the purified five-subunit condensin complex with equimolar 124 bp linear dsDNA and 0.5 mM ADP·BeF3 (DNA-gripping state); CL buffer, 30°C 30 min, UV 365 nm on ice; 1% FDR at residue-pair level. The note with it: both partners purified.

B1: Cnd3^Ycg1 (fission yeast condensin HEAT-repeat subunit) (natural protein, S. pombe, UniProt Q10429 1-875, looked up)
chain: MSCIQIISSSQTSIAGHRKLCNKLFTLRTQEGFETDILRALNIILTVKKGNSNADRVLRFLVTFVNYLQQKDPEIDIVQPILKHILRGLDAKDKTVRYRCCQIIARVVNCVKEIDDDLYNTLKEKLLSRVLDRESIVRLEAVVALSRLQEDTGDEENDVRNILLFLLQNDPSSEVRRSVLLNIEVSNSTLPFILERARDVDAANRKCVYARVLPKIGDFRYLSIKKRVRILKWGLNDRDESVEKAAADMLAYQWIENADNNLLELLERLDVSNNSDVAVLAIKKFFDVRVDSLSQLEFPEQFWLELTAESSLLARTFNEICIEKNYTDLLDKMPEVVQLTYYIERQYVSLRDKSSYDESCFIIEQLLYIGLSQDMVDEIGRRKLLKSLTNSLSTMALPDSLISLHIELLRKLCSSENDFCSLLVEIITEVFEQGHSQNQTEEQGNSNAPELNKNDYEGEEITVSQKSPSPSLPPNELNEPEPDDMDGYKEAFNELRCLSYVQCLFENITSSLNENLYMVDMLKTLIIPAVRSHDLPIREKGLECLSLVCLLNADLAFENVPLYLHCYEKGSVVLKCTAIRTLTDMLIQHGKAKFTEYEDAISSILFEALGEFENAELQTLGAEAIAKLLVILHYRDELFLKPLIIQYFEPNTVDNHALRQVLGYFFPVYAFGAHENQWRIATIFCDALLSLLEIYRDLDEDDVQLSIGHIAQQMLDWTDNEKLYERKTQTGDDYIALNHNVHLHLANMIFESLPNASEGKERKFMISLLGKLKIPTDLPSSDYQRTKRKLETYESHGFTMDSTSLSILAKFERMLLQNEEARSKFEETEEERLMENAEENEHAGAEAISGEIIPDTVEANMEDEEEVYVKQEEDL
notes: Cnd3 (Ycg1), S. pombe condensin HEAT-repeat subunit; cDNA cloned into an S. cerevisiae expression vector; also called Cnd3^CAP-G; source: S. cerevisiae (w303, pep4 deleted), co-overexpressed with the other four condensin subunits from GAL1-10 promoters; in cell extract, and purified as the complex (IgG-agarose, 3C protease elution, heparin, Superose 6)
On to B1, for which the binding result in experiment [1] and in experiment [2] was “binds” in each case.
